Measurements: patent US8975044B2, “Polynucleotides encoding for frizzled-binding agents and uses thereof” (OncoMed Pharmaceuticals, Inc., priority 2008, dated 2015)

Test system: PN4 tumors
Test: Alcian blue staining of treated PN4 tumor sections
Type: in vivo, mice
Conditions: relative to controls and the gemcitabine alone group; data not shown
Text: Another characteristic of endocrine, secretory or ductal cells is the production of mucin and these cells can be detected by alcian blue staining (van Es et al. 2005. Nature 435 959-63). It was observed during harvesting and processing of tumors that the 18R5 treated tumors were much more mucinous than control treated tumors. Therefore, PN4 tumors sections from mice treated with control antibody, gemcitabine alone, 18R5 alone, or 18R5 plus gemcitabine were stained with alcian blue.

B1: 18R5: human anti-FZD antibody; VH SEQ ID NO:10 (as 18R8), VL SEQ ID NO:14; binds FZD1, 2, 5, 7, 8 (antibody, V domains shown)
VH: EVQLVESGGGLVQPGGSLRLSCAASGFTFSHYTLSWVRQAPGKGLEWVSVISGDGSYTYYADSVKGRFTISSDNSKNTLYLQMNSLRAEDTAVYYCARNFIKYVFANWGQGTLVTVSS
VL: DIELTQPPSVSVAPGQTARISCSGDNIGSFYVHWYQQKPGQAPVLVIYDKSNRPSGIPERFSGSNSGNTATLTISGTQAEDEADYYCQSYANTLSLVFGGGTKLTVLG
modifications: 18R5/18R8 heavy chain variable region (VH); 18R5 light chain variable region (VL)
alcian blue staining: clear increase in alcian blue staining
